According to the supplement of paper PMC9112550, “Optimization of the antimicrobial peptide Bac7 by deep mutational scanning” (BMC Biology, 2022):

tested on: Escherichia coli TOP10; assay: shrunken log2 fold change of peptide-encoding DNA abundance (4.5 h post-induction vs induction); higher = less antimicrobial activity (less host growth inhibition); conditions: time post-induction: 4.5 h; library: site-saturation at positions 5, 18, 19, 20
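Also: peptides expressed intracellularly from a pBAD plasmid library in pooled LB shake-flask culture, induced with 0.3% L-arabinose, DNA abundance read by NGS, three biological replicates, DESeq2 with apeglm shrinkage.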

Row | Sequence | shrunken log2 fold change
1 | RRIRRRPPRLPRPRPRPVTQPRP | 0.197
2 | RRIRARPPRLPRPRPRPVVKPRP | 0.298
3 | RRIRQRPPRLPRPRPRPHPMPRP | -0.185
4 | RRIRDRPPRLPRPRPRPRSDPRP | 0.514
5 | RRIRDRPPRLPRPRPRPFPVPRP | -0.0955
6 | RRIRIRPPRLPRPRPRPWFWPRP | -0.313
7 | RRIRVRPPRLPRPRPRPCAFPRP | -0.264
8 | RRIRMRPPRLPRPRPRPNICPRP | 0.021
9 | RRIRGRPPRLPRPRPRPSYIPRP | -0.458
10 | RRIRTRPPRLPRPRPRPKVCPRP | -0.00594
11 | RRIRVRPPRLPRPRPRPPAHPRP | 0.231
12 | RRIRKRPPRLPRPRPRPKCPPRP | 0.165
13 | RRIRNRPPRLPRPRPRPHCWPRP | 0.0498
14 | RRIRCRPPRLPRPRPRPEYQPRP | 0.123
15 | RRIRCRPPRLPRPRPRPMCHPRP | -0.662
16 | RRIRQRPPRLPRPRPRPNAWPRP | 0.0879
17 | RRIRYRPPRLPRPRPRPVSAPRP | -0.332
18 | RRIRMRPPRLPRPRPRPYMYPRP | 0.0981
19 | RRIRGRPPRLPRPRPRPTDTPRP | 0.656
20 | RRIRQRPPRLPRPRPRPEHRPRP | -0.271
21 | RRIRYRPPRLPRPRPRPPQPPRP | 0.436
22 | RRIRYRPPRLPRPRPRPVSLPRP | -0.267
23 | RRIRYRPPRLPRPRPRPSNSPRP | -1.15
24 | RRIRVRPPRLPRPRPRPCQMPRP | -0.486
25 | RRIRHRPPRLPRPRPRPNGSPRP | -0.0827

Row | Sequence | shrunken log2 fold change
26 | RRIRHRPPRLPRPRPRPDWAPRP | -0.0995
27 | RRIRGRPPRLPRPRPRPQAHPRP | 0.441
28 | RRIRHRPPRLPRPRPRPSGRPRP | 0.0298
29 | RRIRHRPPRLPRPRPRPFKKPRP | -0.00783
30 | RRIRGRPPRLPRPRPRPGPCPRP | 0.854
31 | RRIRRRPPRLPRPRPRPVHIPRP | -0.0107
32 | RRIRDRPPRLPRPRPRPMVWPRP | 0.851
33 | RRIRTRPPRLPRPRPRPTSTPRP | -0.0605
34 | RRIRARPPRLPRPRPRPECDPRP | 1.12
35 | RRIRNRPPRLPRPRPRPQMIPRP | -0.0608
36 | RRIRDRPPRLPRPRPRPAEWPRP | 0.0244
37 | RRIRARPPRLPRPRPRPATRPRP | 0.487
38 | RRIRARPPRLPRPRPRPLAIPRP | 0.397
39 | RRIRKRPPRLPRPRPRPDELPRP | 2.45
40 | RRIRRRPPRLPRPRPRPNIEPRP | 0.0519
41 | RRIRDRPPRLPRPRPRPQDLPRP | 0.0112
42 | RRIRDRPPRLPRPRPRPSMGPRP | -0.11
43 | RRIRDRPPRLPRPRPRPWSRPRP | -0.612
44 | RRIRPRPPRLPRPRPRPQDTPRP | -0.229
45 | RRIRKRPPRLPRPRPRPLYLPRP | -0.17
46 | RRIRIRPPRLPRPRPRPYYSPRP | -0.213
47 | RRIRGRPPRLPRPRPRPNGRPRP | 0.419
48 | RRIRVRPPRLPRPRPRPWNFPRP | -0.102
49 | RRIRIRPPRLPRPRPRPHSFPRP | -0.643
50 | RRIRSRPPRLPRPRPRPCADPRP | 0.0939

Row | Sequence | shrunken log2 fold change
51 | RRIRMRPPRLPRPRPRPSCTPRP | -0.0592
52 | RRIRRRPPRLPRPRPRPMRYPRP | 0.236
53 | RRIRHRPPRLPRPRPRPKWSPRP | 0.0617
54 | RRIRHRPPRLPRPRPRPGTQPRP | -0.128
55 | RRIRIRPPRLPRPRPRPHLMPRP | -1.31
56 | RRIRWRPPRLPRPRPRPWFLPRP | -0.617
57 | RRIRIRPPRLPRPRPRPKHFPRP | -0.292
58 | RRIRLRPPRLPRPRPRPTHQPRP | 0.592
59 | RRIRRRPPRLPRPRPRPAQVPRP | -0.0303
60 | RRIRLRPPRLPRPRPRPKVAPRP | -0.0483
61 | RRIRLRPPRLPRPRPRPFTTPRP | 0.0966
62 | RRIRQRPPRLPRPRPRPYNHPRP | -0.047
63 | RRIRWRPPRLPRPRPRPWMWPRP | 0.0359
64 | RRIRPRPPRLPRPRPRPVYKPRP | -0.199
65 | RRIRIRPPRLPRPRPRPSPHPRP | -1.03
66 | RRIRYRPPRLPRPRPRPAASPRP | -0.0616
67 | RRIRERPPRLPRPRPRPLCYPRP | -0.824
68 | RRIRCRPPRLPRPRPRPIQWPRP | -0.263
69 | RRIRDRPPRLPRPRPRPYQYPRP | -0.0404
70 | RRIRTRPPRLPRPRPRPLLCPRP | -0.413
71 | RRIRLRPPRLPRPRPRPKKSPRP | 0.018
72 | RRIRGRPPRLPRPRPRPDYHPRP | -0.139
73 | RRIRKRPPRLPRPRPRPIKTPRP | -0.0153
74 | RRIRYRPPRLPRPRPRPRGTPRP | 0.173
75 | RRIRFRPPRLPRPRPRPDCCPRP | -0.0954
